The target in this experiment is archaeal KEOPS complex (pfuPcc1, mjKae1, mjBud32, mjCgi121) (Pyrococcus furiosus | Methanococcus jannaschii) (UniProt Q8TZI1). The experiment in a line: SEC-MALS. (SEC sorts molecules by how far they enter the pores of the column.)

For one substance, stoichiometry N results are on record in publication PMC5001605.

In general, stoichiometry N refers to the number of molecules, sites or subunits per partner or assembly.

“archaeal KEOPS complex (pfuPcc1, mjKae1, mjBud32, mjCgi121) (from UniProt Q8TZI1 1-82; Q58530 1-328; Q58530 1-535; Q57646 1-145)” registered a stoichiometry N of 2.
